Tests used:
[1] = substrate: PET; experiment: Proxy for plastic degradation [Released monomer concentration (HPLC/LC-MS) (TPA)]; conditions: pH 7, 30 °C, part of the chain shown
[2] = substrate: PET; experiment: Proxy for plastic degradation [Released monomer concentration (HPLC/LC-MS) (BHET)]; conditions: pH 7, 30 °C, part of the chain shown
[3] = substrate: BHET; experiment: Proxy for plastic degradation [Released monomer concentration (HPLC/LC-MS) (MHET)]; conditions: pH 7
[4] = substrate: PET; experiment: as above; conditions: pH 7, 30 °C, part of the chain shown
[5] = substrate: PET; experiment: Proxy for plastic degradation [Released monomer concentration (HPLC/LC-MS) (TPA+MHET+BHET)]; conditions: pH 7, 30 °C, part of the chain shown
[6] = substrate: PET; experiment: Proxy for plastic degradation [Released monomer concentration (HPLC/LC-MS) (TPA+MHET+BHET+Total aromatic products)]; conditions: pH 7; 30 °C; 0 h

B1: unnamed (protein)
chain: MNFPRASRLMQAAVLGGLMAVSAAATAQTNPYARGPNPTAASLEASAGPFTVRSFTVSRPSGYGAGTVYYPTNAGGTVGAIAIVPGYTARQSSIKWWGPRLASHGFVVITIDTNSTLDQPSSRSSQQMAALRQVASLNGTSSSPIYGKVDTARMGVMGWSMGGGGSLISAANNPSLKAAAPQAPWDSSTNFSSVTVPTLIFACENDSIAPVNSSALPIYDSMSRNAKQFLEINGGSHSCANSGNSNQALIGKKGVAWMKRFMDNDTRYSTFACENPNSTRVSDFRTANCS
Proxy for plastic degradation ([1]; 0 h): 0 µM | Proxy for plastic degradation ([1]; 48 h): 60 µM | Proxy for plastic degradation ([2]; 0 h): 0 µM | Proxy for plastic degradation ([2]; 72 h): 26 µM | Proxy for plastic degradation ([3]; 30 °C, 0 h, part of the chain shown): 0 µM | Proxy for plastic degradation ([3]; 30 °C, 20 h, part of the chain shown): 12 µM | Proxy for plastic degradation ([3]; 30 °C, 40 h, part of the chain shown): 19 µM | Proxy for plastic degradation ([3]; 30 °C, 60 h, part of the chain shown): 24 µM | Proxy for plastic degradation ([3]; 50 °C, 0 h, part of the chain shown): 0 µM | Proxy for plastic degradation ([3]; 50 °C, 40 h, part of the chain shown): 5.9 µM | Proxy for plastic degradation ([3]; 50 °C, 60 h, part of the chain shown): 5.6 µM | Proxy for plastic degradation ([3]; 70 °C, 0 h, part of the chain shown): 0 µM | Proxy for plastic degradation ([3]; 70 °C, 20 h, part of the chain shown): 2.3 µM | Proxy for plastic degradation ([3]; 70 °C, 40 h, part of the chain shown): 3 µM | Proxy for plastic degradation ([3]; 70 °C, 60 h, part of the chain shown): 1.85 µM | Proxy for plastic degradation ([3]; part of the chain shown): 4 µM | Proxy for plastic degradation ([4]; 0 h): 0 µM | Proxy for plastic degradation ([4]; 48 h): 505 µM | Proxy for plastic degradation ([4]; 96 h): 460 µM | Proxy for plastic degradation ([5]; 0 h): 0 µM | Proxy for plastic degradation ([5]; 24 h): 580 µM | Proxy for plastic degradation ([5]; 48 h): 590 µM | Proxy for plastic degradation ([5]; 72 h): 600 µM | Proxy for plastic degradation ([5]; 96 h): 520 µM

B2: unnamed (protein)
chain: MQTNPYARGPNPTAASLEASAGPFTVRSFTVSRPSGYGAGTVYYPTNAGGTVGAIAIVPGYTARQSSIKWWGPRLASHGFVVITIDTNSTLDQPSSRSSQQMAALRQVASLNGTSSSPIYGKVDTARMGVMGWSMGGGGSLISAANNPSLKAAAPQAPWDSSTNFSSVTVPTLIFACENDSIAPVNSSALPIYDSMSRNAKQFLEINGGSHSCANSGNSNQALIGKKGVAWMKRFMDNDTRYSTFACENPNSTRVSDFRTANCSLEHHHHHH
Proxy for plastic degradation ([3]; 30 °C, 0 h): 0 µM | Proxy for plastic degradation ([3]; 30 °C, 20 h): 12 µM | Proxy for plastic degradation ([3]; 30 °C, 40 h): 20 µM | Proxy for plastic degradation ([3]; 30 °C, 60 h): 25 µM | Proxy for plastic degradation ([3]; 50 °C, 0 h): 0 µM | Proxy for plastic degradation ([3]; 50 °C, 20 h): 5 µM | Proxy for plastic degradation ([3]; 50 °C, 40 h): 5.5 µM | Proxy for plastic degradation ([3]; 50 °C, 60 h): 5.5 µM | Proxy for plastic degradation ([3]; 70 °C, 0 h): 0 µM | Proxy for plastic degradation ([3]; 70 °C, 20 h): 2.5 µM | Proxy for plastic degradation ([3]; 70 °C, 40 h): 3 µM | Proxy for plastic degradation ([3]; 70 °C, 60 h): 2 µM | Proxy for plastic degradation [6]: 0 µM
